We go through two molecules from publication PMC4148589 (Journal of cell science, 2013).

What all share (assay): FRAP
Assay [1] has as its target CaV1.1 α1S with deletion of amino acid 344 (pc-α1Sdel1(Δ344)) (UniProt P07293 1-1873, Δ344).
For assay [2], the target named is CaV1.1 α1S with deletion of amino acids 344–346 (pc-α1Sdel3(Δ344–346)) (UniProt P07293 1-1873, Δ344–346).
The target of assay [3] is CaV1.2 α1C subunit, untagged (pβA-α1C) (UniProt P22002-5 1-2142).
Assay [4] addresses CaV1.1 α1S with deletion of amino acids 344–345 (pc-α1Sdel2(Δ344–345)) (UniProt P07293 1-1873, Δ344–345).
Assay [5] addresses CaV1.1 α1S subunit, untagged (pc-α1S) (UniProt P07293 1-1873).

B1: skeletal muscle β1a subunit, GFP-tagged (pcDNA3-β1a-GFP) (natural protein)
chain: not shown
For the molecule B1, the “R75 (fractional fluorescence recovery 75 s after bleaching)” value in assay [1] is 20.9%; in assay [2] it was 22.8%; in assay [3] it was 23.6%; in assay [4], 19.9%.

B2: β1a subunit with the substitution M293A, GFP-tagged (pcDNA3-β1aM293A-GFP) (natural protein)
chain: not shown
Regarding B2, the “R75 (fractional fluorescence recovery 75 s after bleaching)” value in assay [5] was determined as 45.2%.
